Among the data in PMC3314626 (2012) are Kd values, retold here.

Substitutions are numbered along the chain they refer to.

The target in the test is T1, ALC1 peptide (Homo sapiens, UniProt O94985).
T1 chain: KENEMDWDDSALTI
Kind of test: ITC. For orientation: Isothermal titration calorimetry measures the heat released or taken up as one component is titrated into another.

B1: KLC1 TPR (protein)
chain: GGYEIPARLRTLHNLVIQYASQGRYEVAVPLCKQALEDLEKTSGHDHPDVATMLNILALVYRDQNKYKDAANLLNDALAIREKTLGKDHPAVAATLNNLAVLYGKRGKYKEAEPLCKRALEIREKVLGKDHPDVAKQLSNLALLCQNQGKYEEVEYYYQRALEIYQTKLGPDDPNVAKTKNNLASCYLKQGKFKQAETLYKEILTRAHEREFGSVDDENKPIWMHAEEREECKGKQKDGTSFGEYGGWYKACKVDSPTVTTTLKNLGALYRRQGKFEAAETLEEAAMRSRKQG
By Kd is commonly meant the concentration at which binding is half-saturated. Read a low Kd as higher affinity. Turning to B1, the equilibrium dissociation constant (Kd) is 44 µM.

B2: KLC1 TPR (protein)
chain: B1 chain with S139N
B2 came in with an equilibrium dissociation constant (Kd) of 50 µM.
